Measurements reported in paper PMC9435400.

Assays:
Test in all cases: SEC
[1] = target: SARS-CoV-1 soluble spike ectodomain (2P, GSAS, T4 fibritin trimerization motif) (SARS-CoV-1 | bacteriophage T4) (UniProt P59594)
[2] = target: BtKY72 soluble spike ectodomain (2P, GSAS, T4 fibritin trimerization motif) (BtKY72 (sarbecovirus) | bacteriophage T4)
[3] = target: Rf1 soluble spike ectodomain (2P, GSAS, T4 fibritin trimerization motif) (Rf1 (sarbecovirus) | bacteriophage T4)
[4] = target: BM48-31 soluble spike ectodomain (2P, GSAS, T4 fibritin trimerization motif) (BM48-31 (sarbecovirus) | bacteriophage T4)
[5] = target: Rs4081 soluble spike ectodomain (2P, GSAS, T4 fibritin trimerization motif) (Rs4081 (sarbecovirus) | bacteriophage T4)
[6] = target: Yun11 soluble spike ectodomain (2P, GSAS, T4 fibritin trimerization motif) (Yun11 (sarbecovirus) | bacteriophage T4)
[7] = target: Pang17 soluble spike ectodomain (2P, GSAS, T4 fibritin trimerization motif) (pang17 (sarbecovirus of pangolins) | bacteriophage T4)
[8] = target: RmYN02 soluble spike ectodomain (2P, GSAS, T4 fibritin trimerization motif) (RmYN02 (sarbecovirus) | bacteriophage T4)

“SARS-CoV-1 soluble spike ectodomain (2P, GSAS, T4 fibritin trimerization motif) (from UniProt P59594 14-1190) (domain or fragment)” gave a stoichiometry N [1] of 3.
In the case of “BtKY72 soluble spike ectodomain (2P, GSAS, T4 fibritin trimerization motif) (domain or fragment)”, the stoichiometry N [2] is reported as 3.
Substance “Rf1 soluble spike ectodomain (2P, GSAS, T4 fibritin trimerization motif) (domain or fragment)” has a stoichiometry N [3] of 3.
“BM48-31 soluble spike ectodomain (2P, GSAS, T4 fibritin trimerization motif) (domain or fragment)” was tested, and the stoichiometry N [4] was 3.
“Rs4081 soluble spike ectodomain (2P, GSAS, T4 fibritin trimerization motif) (domain or fragment)” gave a stoichiometry N [5] of 3.
In the case of “Yun11 soluble spike ectodomain (2P, GSAS, T4 fibritin trimerization motif) (domain or fragment)”, the stoichiometry N [6] is reported as 3.
“Pang17 soluble spike ectodomain (2P, GSAS, T4 fibritin trimerization motif) (domain or fragment)” showed a stoichiometry N [7] of 3.
With “RmYN02 soluble spike ectodomain (2P, GSAS, T4 fibritin trimerization motif) (domain or fragment)” the stoichiometry N [8] was 3.
